Reference: patent publication US20230106131A1
pKd: −log10 of the molar value.

Legend:
[1] = biological target: GST-MDM2 (human MDM2 residues 17-125) (human) (UniProt Q00987); experiment: ratio of KD values of FITC-labeled peptides
[2] = biological target: GST-MDM2 (human MDM2 residues 17-125) (human) (UniProt Q00987); experiment: direct binding of the FITC-labeled peptide to MDM2

Chain of GST-MDM2 (human MDM2 residues 17-125) (human) (Q00987 17-125): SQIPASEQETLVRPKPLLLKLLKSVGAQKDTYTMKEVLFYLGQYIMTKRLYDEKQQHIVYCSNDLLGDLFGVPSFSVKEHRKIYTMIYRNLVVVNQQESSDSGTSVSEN

For “peptide 9, Ac-LTFhCHYWhCQLTS-miniPEG-K(FITC)-NH2, stapled with BBA-CPP9”, which fold decrease of affinity against peptide 8 [1] is on record?
The fold decrease of affinity against peptide 8 was 8 fold.

And the pKd [2]?
Its pKd is 6.94.
